Reference: the supplement of paper PMC10567573

B1: CDS2 (parent)
chain: LIVVTQSHLVIHNLFEGMIWFIVP
B2: ZNF263 (parent)
chain: LLRHQRIHTGERPYKCPECGKSFS

Variants of: B1
Experiment: protein stability index of a GFP-peptide fusion (GPS, HEK-293T) (PSI 1-6); higher = more stable
Conditions: c terminus: a fixed tail appended
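Note: lentivirally expressed fusions sorted by FACS into six bins by GFP to DsRed ratio, PSI derived from sequencing read proportions per bin multiplied by bin number.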

Variant	protein stability index
I2F	1.75
I2H	3.16
I2C	1.83
I2K	4.33
I2W	3.71
I2M	2.66
I11L	2.48
I11E	2.39
I11F	3.51
I11N	4.03
I11R	2.2
T5G	4.08
T5R	3.33
T5P	3.86
T5L	2.71
T5W	2.72
T5A	2.62
T5K	2.97
T5Q	3.1
T5I	2.58
T5S	5.49
I22D	4.26
I22N	1.8
I22M	3.27

Variant	protein stability index
I22A	2.07
I22K	3.07
I22R	2.85
I22L	3.99
L9I	1.84
L9W	2.91
L9Q	3.56
L9P	5.08
L9S	1.96
L9F	1.48
E16F	2.52
E16Q	2.01
E16W	3.98
E16S	3.4
E16Y	2.74
E16N	3.06
E16I	3.46
E16K	2.35
E16G	2.9
V23S	1.85
V23W	1.67
V23E	4.22
V23L	3.54
L14E	2.99

Variant	protein stability index
L14P	2.64
L14G	3.6
L14V	2.71
L14D	3.03
L14F	2.92
F15P	2.8
F15Q	2.25
F15K	3.4
F15L	2.41
F15W	4.64
H8M	2.48
H8T	2.91
H8I	2.81
H8L	3.47
H8N	3.36
H8V	4.43
H8G	4.59
H8S	4.08
N13R	2.08
N13S	3.02
N13F	2.94
N13K	2.81
N13L	3.44
N13E	2.93

Variant	protein stability index
N13V	3.45
N13A	4.23
N13M	4.66
I19W	3.61
I19Q	3.36
I19L	1.84
I19G	3.67
I19P	3.75
I19F	2.89
I19S	2.75
S7L	3.2
S7T	4.59
S7G	3.76
S7Y	3.16
S7I	2.54
S7D	2.68
S7P	4.35
S7W	3.44
S7V	3.79
L1S	3.83
L1Y	3.07
L1P	3.61
L1I	3.5
L1V	3.56

Variant	protein stability index
L1Q	4.19
L1A	3.25
L1R	3.84
L1T	4.15
L1H	3.11
V10Q	4.6
V10D	1.79
V10P	1.52
V10A	3.19
V10K	2.67
V10M	2.77
V10I	4.56
M18D	3.2
M18S	2.98
M18Q	2.68
M18A	4.48
M18I	3.09
M18W	2.66
P24M	2.59
P24S	1.99
P24G	3.29
P24H	3.13
P24W	3.81
P24V	2.65

Variant	protein stability index
P24R	3.1
P24C	3.63
G17P	2.82
G17N	2.29
G17Q	2.63
G17R	3.21
G17W	2.35
G17H	2.8
G17A	3.15
V4Q	2.74
V4C	3.17
V4T	3.04
V4R	3.46
V4N	3.21
V4G	3.49
W20N	3.08
W20H	3.23
W20E	2.38
W20K	1.61
W20I	3.21
W20V	3.06
V3K	3.44
V3I	3.46
V3Q	2.14

Variant	protein stability index
V3S	3.43
V3P	3.31
V3N	2.96
V3T	2.85
V3G	3.92
V3H	3.21
V3W	4.23
V3R	2.14
F21V	2.39
F21I	3.28
F21E	1.96
F21C	3.4
Q6A	2.85
Q6L	4.3
Q6T	2.85
Q6M	1.77
Q6S	2.58
Q6V	2.76
H12A	3.32
H12K	2.6
H12I	1.85
H12T	4.2
H12P	1.35
H12G	3.39

Variants of: B2
Experiment: as above
Conditions: c terminus: a fixed tail appended

Variant	protein stability index
R6M	2.08
R6G	2.08
R6W	2.06
R6D	2.78
R6P	2.56
R6I	2.22
R6H	3.73
R6Q	2.53
R6N	2.59
R6V	2.78
R6F	1.41
R6K	2.81
R6Y	1.91
R6A	2.68
R6T	2.85
R6S	2.51
R6E	2.74
R6L	2.41
R6C	5
H4L	2.15
H4F	1.92
H4I	1.96
H4G	2.99
H4N	2.24

Variant	protein stability index
H4R	3.38
H4D	2.58
H4S	2.23
H4M	1.73
H4K	2.2
H4Y	2.12
H4C	3.89
H4E	2.81
H4P	2.25
H4T	1.69
H4A	2.18
H4V	3.58
H4W	1.77
H4Q	2.56
T9C	2.19
T9D	2.73
T9S	1.88
T9K	2.41
T9G	3.33
T9I	2.53
T9H	2.21
T9E	2.62
T9P	2.45
T9M	2.21

Variant	protein stability index
T9Q	3.1
T9F	2.06
T9A	1.85
T9V	2.34
T9R	2.14
T9W	1.49
T9N	2.07
T9L	3.29
H8D	2.53
H8K	2.44
H8I	1.8
H8A	1.86
H8F	2.04
H8Y	1.59
H8Q	2.52
H8E	2.52
H8M	2.24
H8N	2.88
H8P	3.3
H8L	1.85
H8S	2.61
H8R	1.37
H8V	2.48
H8W	1.73

Variant	protein stability index
H8T	2
H8C	2.03
H8G	2.39
L2H	3.11
L2M	3.08
L2N	3.27
L2W	1.86
L2P	2.63
L2E	3.61
L2D	3.39
L2C	4.89
L2F	3.31
L2G	2.76
L2S	3.11
L2I	1.78
L2Y	1.82
L2Q	2.57
L2T	2.71
L2V	4.05
L2A	1.96
R3D	3.77
R3P	2.76
R3F	1.58
R3K	2.48

Variant	protein stability index
R3H	2.56
R3G	2.68
R3E	2.9
R3S	2.81
R3V	2.3
R3C	2.98
R3A	3.21
R3T	3.27
R3W	2.3
R3I	2.25
R3Y	1.62
R3L	1.63
R3N	2.28
R3Q	2.34
R3M	2.04
L1K	3.58
L1E	2.29
L1N	2.85
L1T	2.9
L1C	4.12
L1F	3.5
L1H	2.44
L1Q	4.46
L1W	2.95

Variant	protein stability index
L1I	2.06
L1Y	3.07
L1V	3.03
L1P	2.83
L1A	2.82
L1R	4.23
L1G	2.73
L1S	2.26
L1D	2.62
L1M	1.65
I7T	2.41
I7N	2.1
I7P	2.56
I7Q	2.31
I7A	2.39
I7F	2.79
I7C	2.48
I7E	2.64
I7G	2.48
I7Y	1.77
I7V	2.27
I7L	1.94
I7S	1.91
I7H	2.68

Variant	protein stability index
I7W	2.17
I7K	2.14
I7D	3.06
I7R	2.55
I7M	2.66
Q5L	2.4
Q5S	2.36
Q5I	2.13
Q5H	2.74
Q5W	1.66
Q5P	2.3
Q5D	2.23
Q5R	2.09
Q5M	2.21
Q5A	2.63
Q5G	1.87
Q5T	2.82
Q5E	3.06
Q5N	2.29
Q5C	1.95
Q5V	1.74
Q5K	2.28
